Here are results for three molecules from paper PMC11315935, “Multi-layered heterochromatin interaction as a switch for DIM2-mediated DNA methylation” (Nature Communications, 2024).

Assay [1] concerns (CTA)12/(TAG)12 36-mer DNA duplex. Nature of the assay: In vitro DNA methylation assay of DIM2 (WT or mutant). The settings on record: 1.0 µM DIM2, 30 °C, 30 min, pH 8.0; for DNA methylation activity: Fig. 2g, in the presence of HP1 (2 µM) and H3_1-24K9me3 peptide (1.0 µM). The arrangement: DNA methylation activity: unit not given here. The assay is classed as biochemical.
A further assay relates to HP1. Nature of the assay: Size-exclusion chromatography of DIM2-HP1 complex. In kind it is binding, Neurospora Crassa. The settings on record: 1.0 µM DIM2 and/or 2.5 µM HP1, Superdex 200 increase 10/300 GL, pH 7.5. The protocol: For size-exclusion chromatography analysis, 400 µL of the sample mixture containing 1.0 µM DIM2 and/or 2.5 µM HP1 was loaded onto Superdex 200 increase 10/300 GL column (GE Healthcare) and eluted at a flow rate of 0.5 mL/min, in the buffer containing 20 mM Tris-HCl (pH 7.5), 100 mM NaCl, 5% glycerol, and 5 mM DTT. The proteins in each fraction were then visualized by SDS-PAGE.
In general terms: SEC sorts molecules by how far they enter the pores of the column.

Another assay has as its system DIM2. Nature of the assay: In vitro DNA methylation assay: effect of HP1 and H3 peptides on DIM2 activity. The settings on record: for DNA methylation activity of DIM2 in presence of HP1, WT or W98A: Sup Fig. 1e, (CTA)12/(TAG)12 DNA duplex, 1.0 µM DIM2, 2 µM HP1, 30 °C, 30 min, pH 8.0. More on the design: DNA methylation activity of DIM2 in presence of HP1, WT or W98A: unit not given beside the values. In kind it is biochemical, Neurospora Crassa. The protocol:
In vitro DNA methylation assay was performed in a 20-µL reaction mixture. For the substrate specificity assay, the following DNA duplexes were used as substrates: CG DNA (Upper strand: 5’-[…]-3’), hemimethylated CG DNA (Upper strand: 5’-TAAATTTXGATTAATAAT-3’, X = 5-methylcytosine; Lower strand: 5’-[…] -3’), CHG DNA (Upper strand: 5’-[…]-3’), and CHH DNA (Upper strand: 5’-[…]-3’). The reaction mixture contains 0.25 µM DIM2, 1.0 µM DNA duplex, 1.0 µM synthesized H3K9me3 peptide (residues 1-24 of H3 plus a C-terminal tryptophan), 0.5 µM HP1, and 0.56 µM S-adenosyl-L-[methyl-^3H] methionine with a specific activity of 18 Ci/mmol (PerkinElmer) in buffer containing 50 mM Tris-HCl (pH 8.0), 100 mM NaCl, 0.05% β-mercaptoethanol, 5% glycerol, and 200 µg/mL BSA. For the rest of the DNA methylation assay, each reaction mixture contains 1.0 µM DIM2, […] methionine with a specific activity of 18 Ci/mmol (PerkinElmer) in buffer containing 50 mM Tris-HCl (pH 8.0), 100 mM NaCl, 0.05% β-mercaptoethanol, 5% glycerol, and 200 µg/mL BSA. In addition, 1.0 µM synthesized H3K9me3 or H3K9me0 peptide (residues 1-24 of H3 plus a C-terminal tryptophan) and/or 2 µM HP1 protein was included to evaluate the effect of H3 and HP1 regulation. The reaction mixture was incubated at 30 °C for 30 min, unless indicated otherwise, before being quenched by the addition of 5 µL of 10 mM cold SAM. After the reaction, 8 μL of the mixtures was loaded onto Hybond N nylon membrane (GE Healthcare), which was left to dry out at room temperature. The membrane was subsequently washed with 0.2 M ammonium bicarbonate (pH 8.2) two times (20 min per time), deionized water (20 min) once, and 95% ethanol (5 min) once. After air dried, the membrane carrying each sample was transferred into a vial containing 3 mL scintillation buffer (Fisher). The tritium scintillation was measured and recorded by a Beckman LS6500 counter. Each the reaction was repeated three times.

B1: DIM2L134A/L139A: DIM2 L134A/L139A double mutation (protein)
chain: MDSPDRSHGGMFIDVPAETMGFQEDYLDMFASVLSQGLAKEGDYAHHQPLPAGKEECLEPIAVATTITPSPDDPQLQLQLELEQQFQTESGLNGVDPAPAPESEDEADLPDGFSDESPDDDFVVQRSKHITVDAPVSTAINPRSTFQRIDENDNLVPPPQSTPERVAVEDLLKAAKAAGKNKEDYIEFELHDFNFYVNYAYHPQEMRPIQLVATKVLHDKYYFDGVLKYGNTKHYVTGMQVLELPVGNYGASLHSVKGQIWVRSKHNAKKEIYYLLKKPAFEYQRYYQPFLWIADLGKHVVDYCTRMVERKREVTLGCFKSDFIQWASKAHGKSKAFQNWRAQHPSDDFRTSVAANIGYIWKEINGVAGAKRAAGDQLFRELMIVKPGQYFRQEVPPGPVVTEGDRTVAATIVTPYIKECFGHMILGKVLRLAGEDAEKEKEVKLAKRLKIENKNATKADTKDDMKNDTATESLPTPLRSLPVQVLEATPIESDIVSIVSSDLPPSENNPPPLTNGSVKPKAKANPKPKPSTQPLHAAHVKYLSQELVNKIKVGDVISTPRDDSSNTDTKWKPTDTDDHRWFGLVQRVHTAKTKSSGRGLNSKSFDVIWFYRPEDTPCCAMKYKWRNELFLSNHCTCQEGHHARVKGNEVLAVHPVDWFGTPESNKGEFFVRQLYESEQRRWITLQKDHLTCYHNQPPKPPTAPYKPGDTVLATLSPSDKFSDPYEVVEYFTQGEKETAFVRLRKLLRRRKVDRQDAPANELVYTEDLVDVRAERIVGKCIMRCFRPDERVPSPYDRGGTGNMFFITHRQDHGRCVPLDTLPPTLRQGFNPLGNLGKPKLRGMDLYCGGGNFGRGLEEGGVVEMRWANDIWDKAIHTYMANTPDPNKTNPFLGSVDDLLRLALEGKFSDNVPRPGEVDFIAAGSPCPGFSLLTQDKKVLNQVKNQSLVASFASFVDFYRPKYGVLENVSGIVQTFVNRKQDVLSQLFCALVGMGYQAQLILGDAWAHGAPQSRERVFLYFAAPGLPLPDPPLPSHSHYRVKNRNIGFLCNGESYVQRSFIPTAFKFVSAGEGTADLPKIGDGKPDACVRFPDHRLASGITPYIRAQYACIPTHPYGMNFIKAWNNGNGVMSKSDRDLFPSEGKTRTSDASVGWKRLNPKTLFPTVTTTSNPSDARMGPGLHWDEDRPYTVQEMRRAQGYLDEEVLVGRTTDQWKLVGNSVSRHMALAIGLKFREAWLGTLYD
modifications: left off: His6, N-terminal, cleaved | MBP, N-terminal, cleaved
notes: DIM2 L134A/L139A double mutation
In the case of B1, the DNA methylation activity in assay [1] (replicate 1) is given as 1.016; in assay [1] (replicate 2), 1.136; in assay [1] (replicate 3), 1.188. Besides, the “DIM2-HP1 complex formation (in words)” value with HP1 is given as “partial disruption of the DIM2-HP1 complex”.

B2: DIM2LLR: DIM2 L134A/L139A/R1104A triple mutation (protein)
chain: MDSPDRSHGGMFIDVPAETMGFQEDYLDMFASVLSQGLAKEGDYAHHQPLPAGKEECLEPIAVATTITPSPDDPQLQLQLELEQQFQTESGLNGVDPAPAPESEDEADLPDGFSDESPDDDFVVQRSKHITVDAPVSTAINPRSTFQRIDENDNLVPPPQSTPERVAVEDLLKAAKAAGKNKEDYIEFELHDFNFYVNYAYHPQEMRPIQLVATKVLHDKYYFDGVLKYGNTKHYVTGMQVLELPVGNYGASLHSVKGQIWVRSKHNAKKEIYYLLKKPAFEYQRYYQPFLWIADLGKHVVDYCTRMVERKREVTLGCFKSDFIQWASKAHGKSKAFQNWRAQHPSDDFRTSVAANIGYIWKEINGVAGAKRAAGDQLFRELMIVKPGQYFRQEVPPGPVVTEGDRTVAATIVTPYIKECFGHMILGKVLRLAGEDAEKEKEVKLAKRLKIENKNATKADTKDDMKNDTATESLPTPLRSLPVQVLEATPIESDIVSIVSSDLPPSENNPPPLTNGSVKPKAKANPKPKPSTQPLHAAHVKYLSQELVNKIKVGDVISTPRDDSSNTDTKWKPTDTDDHRWFGLVQRVHTAKTKSSGRGLNSKSFDVIWFYRPEDTPCCAMKYKWRNELFLSNHCTCQEGHHARVKGNEVLAVHPVDWFGTPESNKGEFFVRQLYESEQRRWITLQKDHLTCYHNQPPKPPTAPYKPGDTVLATLSPSDKFSDPYEVVEYFTQGEKETAFVRLRKLLRRRKVDRQDAPANELVYTEDLVDVRAERIVGKCIMRCFRPDERVPSPYDRGGTGNMFFITHRQDHGRCVPLDTLPPTLRQGFNPLGNLGKPKLRGMDLYCGGGNFGRGLEEGGVVEMRWANDIWDKAIHTYMANTPDPNKTNPFLGSVDDLLRLALEGKFSDNVPRPGEVDFIAAGSPCPGFSLLTQDKKVLNQVKNQSLVASFASFVDFYRPKYGVLENVSGIVQTFVNRKQDVLSQLFCALVGMGYQAQLILGDAWAHGAPQSRERVFLYFAAPGLPLPDPPLPSHSHYRVKNRNIGFLCNGESYVQRSFIPTAFKFVSAGEGTADLPKIGDGKPDACVRFPDHRLASGITPYIAAQYACIPTHPYGMNFIKAWNNGNGVMSKSDRDLFPSEGKTRTSDASVGWKRLNPKTLFPTVTTTSNPSDARMGPGLHWDEDRPYTVQEMRRAQGYLDEEVLVGRTTDQWKLVGNSVSRHMALAIGLKFREAWLGTLYD
modifications: left off: His6, N-terminal, cleaved | MBP, N-terminal, cleaved
notes: DIM2 L134A/L139A/R1104A triple mutation
Consider B2, for which the “DNA methylation activity of DIM2 (in words)” value in assay [1] is given as “completely abolished the DNA methylation activity”. Moreover, the DNA methylation activity in assay [1] (replicate 1) was found to be 0.066; in assay [1] (replicate 2), 0.154; in assay [1] (replicate 3), 0.275. For the same molecule, the “DIM2-HP1 complex formation (in words)” value in the assay with HP1 is “complete disruption of the DIM2-HP1 complex”.

B3: HP1W98A: HP1 with H3K9me3-cage mutation W98A (protein)
chain: MPYDPSALSDEEAASSVELDTRSATSSSKKQSRDKKSVKYTIPEPEDFEDEEQNGDGADEGGEDDEEGDEEEEDVYVVEKILDHMLNDDNEPLFLVKAEGYEKKSDQTWEPEDTLIEGASERLKEYFTKIGGREKIFEASAAAQKIKKRGRPSSNSGTPQASSNKRSRKNGDHPLNSEEPQTAKNAAWKPPAGSWEEHIAQLDACEDEDTHKLMVYLTWKNGHKTQHTTDVIYKRCPQKMLQFYERHVRIIKRDPDSEDREGSVSQ
modifications: left off: His6, N-terminal, cleaved | MBP, N-terminal, cleaved
notes: HP1 with H3K9me3-cage mutation W98A
Turning to B3, the “DNA methylation activity of DIM2 in presence of HP1, WT or W98A” value with DIM2 (replicate 1) came out at 45.423; with DIM2 (replicate 2) it was 47.119; in the assay with DIM2 (replicate 3) it was 45.142. Besides, the “increase of activity-stimulation effect of HP1 on DIM2” value in the assay on DIM2 (W98A vs WT HP1) was ~ 2 fold.
